Measured values from patent US20220025055A1 (Boehringer Ingelheim, published 2022).
Residue numbers refer to the chain shown, from its start. Numbers in names are those of the source. Where two headings read alike, the source gives them in different places.

T1: human FLT3 (FMS-like tyrosine kinase 3) (human, UniProt P36888 27-993)
T1 sequence (looked up): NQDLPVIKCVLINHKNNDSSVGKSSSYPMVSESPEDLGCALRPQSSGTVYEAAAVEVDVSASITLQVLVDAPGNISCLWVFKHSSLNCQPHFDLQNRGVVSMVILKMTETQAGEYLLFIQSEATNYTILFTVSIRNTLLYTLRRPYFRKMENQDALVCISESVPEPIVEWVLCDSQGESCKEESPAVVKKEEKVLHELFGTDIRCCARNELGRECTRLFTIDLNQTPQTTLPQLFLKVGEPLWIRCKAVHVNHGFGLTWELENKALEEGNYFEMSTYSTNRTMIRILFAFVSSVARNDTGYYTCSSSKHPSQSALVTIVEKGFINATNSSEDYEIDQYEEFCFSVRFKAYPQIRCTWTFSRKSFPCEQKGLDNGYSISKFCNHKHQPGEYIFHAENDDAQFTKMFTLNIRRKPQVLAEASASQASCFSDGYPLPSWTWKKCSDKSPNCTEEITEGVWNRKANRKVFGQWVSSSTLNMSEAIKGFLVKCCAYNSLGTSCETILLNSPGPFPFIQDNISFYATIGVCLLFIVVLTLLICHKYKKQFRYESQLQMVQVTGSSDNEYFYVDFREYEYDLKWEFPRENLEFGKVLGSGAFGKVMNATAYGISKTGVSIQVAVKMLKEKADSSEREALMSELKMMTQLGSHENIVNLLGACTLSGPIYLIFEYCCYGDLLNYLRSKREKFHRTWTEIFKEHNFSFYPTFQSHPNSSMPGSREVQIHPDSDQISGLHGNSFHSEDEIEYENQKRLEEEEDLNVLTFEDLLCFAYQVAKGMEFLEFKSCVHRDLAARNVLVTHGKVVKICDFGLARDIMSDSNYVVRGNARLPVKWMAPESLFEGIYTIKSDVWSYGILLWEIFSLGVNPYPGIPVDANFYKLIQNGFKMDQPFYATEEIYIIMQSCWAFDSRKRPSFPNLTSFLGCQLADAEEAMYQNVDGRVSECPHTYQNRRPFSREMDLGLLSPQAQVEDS

T2: cynomolgus FLT3 (cynomolgus, UniProt A0A2K5VQ48 27-993)
T2 sequence: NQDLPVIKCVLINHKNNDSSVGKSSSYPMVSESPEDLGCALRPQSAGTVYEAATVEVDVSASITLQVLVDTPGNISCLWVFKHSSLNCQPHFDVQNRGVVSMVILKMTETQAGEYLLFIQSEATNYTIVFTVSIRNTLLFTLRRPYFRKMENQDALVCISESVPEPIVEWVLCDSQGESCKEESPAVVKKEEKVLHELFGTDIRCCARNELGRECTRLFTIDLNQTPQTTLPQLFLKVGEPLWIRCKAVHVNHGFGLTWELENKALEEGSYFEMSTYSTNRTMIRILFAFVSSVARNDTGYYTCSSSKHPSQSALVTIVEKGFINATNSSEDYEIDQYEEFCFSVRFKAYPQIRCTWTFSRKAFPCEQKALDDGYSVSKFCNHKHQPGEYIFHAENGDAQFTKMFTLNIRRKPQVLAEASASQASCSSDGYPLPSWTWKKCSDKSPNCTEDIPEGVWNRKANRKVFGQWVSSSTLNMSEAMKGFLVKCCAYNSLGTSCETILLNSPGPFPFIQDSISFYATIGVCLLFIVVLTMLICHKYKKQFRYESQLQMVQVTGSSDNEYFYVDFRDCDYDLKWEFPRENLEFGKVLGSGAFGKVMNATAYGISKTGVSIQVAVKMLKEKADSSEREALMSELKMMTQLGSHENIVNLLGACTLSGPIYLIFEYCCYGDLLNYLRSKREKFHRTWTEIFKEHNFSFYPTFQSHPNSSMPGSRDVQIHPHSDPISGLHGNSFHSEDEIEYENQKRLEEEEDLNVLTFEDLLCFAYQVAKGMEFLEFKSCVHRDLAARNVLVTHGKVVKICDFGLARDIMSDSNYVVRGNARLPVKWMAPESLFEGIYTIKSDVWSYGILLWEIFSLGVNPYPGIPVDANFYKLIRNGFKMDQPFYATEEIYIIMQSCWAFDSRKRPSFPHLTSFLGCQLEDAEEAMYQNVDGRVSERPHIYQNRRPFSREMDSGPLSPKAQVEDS

T3: mouse FLT3 (mouse, UniProt Q00342 28-544, limits assumed)
T3 construct: Named only in one sentence; no assay is described
T3 sequence (looked up): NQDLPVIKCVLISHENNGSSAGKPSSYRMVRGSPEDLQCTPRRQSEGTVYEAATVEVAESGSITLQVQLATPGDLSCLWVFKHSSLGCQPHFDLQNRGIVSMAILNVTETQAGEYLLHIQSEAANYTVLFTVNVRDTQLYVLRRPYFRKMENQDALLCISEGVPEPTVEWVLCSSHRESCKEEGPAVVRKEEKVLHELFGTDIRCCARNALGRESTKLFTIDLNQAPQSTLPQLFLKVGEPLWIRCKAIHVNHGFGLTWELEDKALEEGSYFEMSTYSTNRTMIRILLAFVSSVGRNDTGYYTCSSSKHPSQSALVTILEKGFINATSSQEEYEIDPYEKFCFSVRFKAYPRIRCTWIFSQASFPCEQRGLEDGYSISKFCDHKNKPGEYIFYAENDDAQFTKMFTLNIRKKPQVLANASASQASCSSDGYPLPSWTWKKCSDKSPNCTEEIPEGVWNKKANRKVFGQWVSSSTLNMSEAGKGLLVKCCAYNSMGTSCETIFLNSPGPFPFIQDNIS

B1: NB1063 (antibody, V domains shown)
VH: EVQLLESGGGLVQPGGSLRLSCAPSGFTFSNYGMAWVRQAPGKGLEWVSSIHSGGGDTYYRDSVKGRFTISRDNSKNTLYLQMNSLRAEDTAVYYCARGRTPTGYYFDHWGQGTMVTVSS
VL: DIQMTQSPSSLSASVGDRVTITCRASEGIHNGLAWYQQKPGKVPKLLIYNANSLHSGVPSRFSGSGSGTDFTLTISSLQPEDVATYFCQQYYDYPLTFGQGTKLEIK
B2: NB1114 (antibody, V domains shown)
VH: B1 VH
VL: B1 VL with N31T
B3: Humanized VH5 x Humanized VL3 (antibody, V domains shown)
VH: B1 VH with L5V, G10V, L11V, R61A, T78S, A88T, V93L
VL: B1 VL with D1A, M4L, V43A, G57R, V83F
B4: NB1113 (antibody, V domains shown)
VH: B1 VH
VL: B1 VL with N31S
notes: Light chain variant (N31S in CDR-L1) of humanized NB1063 (VH1 x VL1); The constant regions are not restated for the humanized antibodies; the parent chimera NB1016 is human IgG4PAA (S228P, F234A, L235A) / human kappa; also called NB11113; N31S light chain variant of NB1063
B5: Humanized VH5 x Humanized VL1 (antibody, V domains shown)
VH: B1 VH with L5V, G10V, L11V, R61A, T78S, A88T, V93L
VL: B1 VL
B6: Humanized VH5 x Humanized VL2 (antibody, V domains shown)
VH: B1 VH with L5V, G10V, L11V, R61A, T78S, A88T, V93L
VL: B1 VL with D1A, V43A, V83F, F87Y
B7: NB1112 (antibody, V domains shown)
VH: B1 VH
VL: B1 VL with N31D
B8: NB1115 (antibody, V domains shown)
VH: B1 VH
VL: B1 VL with N31L

Legend:
[1] = biological target: T1, human FLT3 (FMS-like tyrosine kinase 3); test: cell-based or functional assay
[2] = biological target: T1, human FLT3 (FMS-like tyrosine kinase 3); test: cell-based or functional assay; remark: listed apart in the source
[3] = biological target: T1, human FLT3 (FMS-like tyrosine kinase 3); test: cell-based or functional assay; remark: listed apart in the source
[4] = biological target: T1, human FLT3 (FMS-like tyrosine kinase 3); test: cell-based or functional assay; remark: listed apart in the source
[5] = biological target: T2, cynomolgus FLT3; test: cell-based or functional assay
[6] = biological target: T1, human FLT3 (FMS-like tyrosine kinase 3); test: flow cytometry on stably expressing human FLT3-STAT5-Luciferase cells, AF488 anti-human IgG (H+L) detection
Description: (§1) Since NB1113 binds to human FLT3, but not mouse FLT3, the binding and functional activity of NB1113 was evaluated in both human and cynomolgus (cyno) FLT3-expressing systems. Stably expressing human and cyno FLT3-STAT5-Luciferase cells were used for both binding and functional assays. The binding of NB1113 to human or cyno FLT3 was assessed by flow cytometry using different concentrations of NB1113 in PBS+2% FBS, followed by detection using AF488 anti-human IgG (H+L) secondary antibody.

[7] = biological target: T3, mouse FLT3; test: not described
[8] = biological target: T2, cynomolgus FLT3; test: flow cytometry on stably expressing cyno FLT3-STAT5-Luciferase cells, AF488 anti-human IgG (H+L) detection
Description: as §1

Molecule | EC50 in AML5 proliferation assay [2] [nM] | Single dose STAT5-Luc assay, activity relative to NB1016 (chimeric), antibody at 1 nM [3] [%] | other results
FLT3 ligand (FLT3L) (from UniProt P49771 27-181) | – | – | EC50 of expansion of HLA-DR+CD1c+ cells from primary human bone marrow, 12 days [1]: 0.023 nM
B1 | 0.118 | – | –
B2 | 0.201 | – | –
B3 | – | 31 | –
B4 | – | – | EC50 in human FLT3-STAT5-Luciferase reporter assay [4]: 1.1 nM; EC50 of expansion of HLA-DR+CD1c+ cells from primary human bone marrow, 12 days [4]: 0.113 nM; EC50 in cyno FLT3-STAT5-Luciferase reporter assay [5]: 1.6 nM; EC50 [6]: 1.36 nM; binding result [7]: no binding; EC50 [8]: 0.9 nM
B5 | – | 83 | –
B6 | – | 53 | –
B7 | 0.27 | – | –
B8 | 0.135 | – | –
